Common to all, as to experiment: IEDB peptide-MHC binding, purified MHC/competitive/radioactivity; filed as Kd, often an IC50 or EC50 that approximates it; ≥ and ≤ were set here for values at or beyond the usual limits of such assays
Test [1] deals with HLA-A*03:01.
Test [2] has as its target HLA-A*11:01.
Test [3] addresses HLA-A*31:01.
Test [4] concerns the target HLA-A*33:01.
Test [5] has as its target HLA-A*68:01.
Setting [6] is: source organism: Mammarenavirus juninense.
Setting [7] is: source organism: Mammarenavirus guanaritoense.
[8] abbreviates: source organism: Dengue virus 2 Jamaica/1409/1983.
The mark [9] stands for this setting: source organism: Vaccinia virus WR.
Where [10] appears, read: source organism: Dengue virus 1 Brazil/97-11/1997.
Setting [11] is: source organism: Vaccinia virus Copenhagen.
The mark [12] stands for this setting: source organism: Mammarenavirus machupoense.

Consider SWPLQCPLDH, for which the Kd – broadly, the free concentration of one partner at which half of the binding sites on the other are occupied at equilibrium, for simple one-to-one binding – in test [1] (setting [6]) is no less than 70 µM; in test [2] (setting [6]), no less than 69.7 µM; in test [3] (setting [6]) it was no less than 22.8 µM; in test [4] (setting [6]) it was no less than 38.5 µM; in test [5] (setting [6]) it was no less than 70.1 µM.
As to TKTAVNMLTH, the equilibrium dissociation constant (Kd) was 7.55 µM in test [3] (setting [7]), no less than 35.7 µM in test [4] (setting [7]) and 0.87 µM in test [5] (setting [7]).
On to ETTMRGAKR, for which the equilibrium dissociation constant (Kd) in test [4] (setting [8]) was determined as 0.117 µM; in test [5] (setting [8]) it was 0.0358 µM.
For the sequence VSDFRDYQSY, the Kd in test [1] (setting [9]) is no less than 32.2 µM; in test [2] (setting [9]), 4.64 µM; in test [3] (setting [9]), no less than 70 µM; in test [4] (setting [9]), no less than 70 µM; in test [5] (setting [9]) it was no less than 51.2 µM.
As to KMAVEVGSIR, the Kd was 4.54 µM in test [1] (setting [9]); no less than 21.1 µM in test [2] (setting [9]); 1.67 µM in test [3] (setting [9]); 13.7 µM in test [4] (setting [9]); 0.0958 µM in test [5] (setting [9]).
In the case of MFAVGLLFRR, the Kd in test [3] (setting [10]) is 19 µM; in test [4] (setting [10]), 0.00166 µM; in test [5] (setting [10]), 0.0618 µM.
As to LILAEYIRHR, the Kd in test [1] (setting [9]) stood at 2.19 µM; in test [2] (setting [9]), 0.738 µM; in test [3] (setting [9]), 0.0804 µM; in test [4] (setting [9]) it was 5.39 µM; in test [5] (setting [9]) it was 1.73 µM.
Regarding LSFSNTIQSY, the equilibrium dissociation constant (Kd) in test [1] (setting [9]) was 7.43 µM; in test [2] (setting [9]) it was 1.37 µM; in test [3] (setting [9]), no less than 70 µM; in test [4] (setting [9]), no less than 70 µM; in test [5] (setting [9]), 4.67 µM.
Take FLLRHYYNKR: the Kd is 1.84 µM in test [1] (setting [9]); 1.13 µM in test [2] (setting [9]); 0.0162 µM in test [3] (setting [9]); 0.0174 µM in test [4] (setting [9]); 1.85 µM in test [5] (setting [9]).
Consider TTLSRTSKK, for which the Kd was found to be 0.0143 µM in test [1] (setting [8]), 0.158 µM in test [2] (setting [8]) and 0.302 µM in test [5] (setting [8]).
Regarding IILAALFMY, the dissociation constant Kd in test [1] (setting [9]) is 0.0205 µM; in test [2] (setting [9]) it was 0.000307 µM; in test [3] (setting [9]), 11.4 µM; in test [4] (setting [9]) it was 13.3 µM; in test [5] (setting [9]), no less than 55.7 µM.
In the same order, the values of IIGHIGHHY are 6.39 µM, 4.62 µM, no less than 77.9 µM, no less than 77.7 µM and no less than 23.1 µM.
For DTRTPKAKR, the dissociation constant Kd in test [4] (source organism: Dengue virus 1 Singapore/S275/1990) was 0.0937 µM.
Turning to SSIDVDKRTK, the Kd came out at 0.493 µM in test [1] (setting [9]); 0.000841 µM in test [2] (setting [9]); 0.752 µM in test [3] (setting [9]); 8.97 µM in test [4] (setting [9]); 0.0191 µM in test [5] (setting [9]).
Consider GLACYRFVK, for which the dissociation constant (Kd) in test [1] (setting [11]) came out at 0.0222 µM; in test [2] (setting [11]) it was 0.024 µM; in test [3] (setting [11]), 0.217 µM; in test [4] (setting [11]), 1.83 µM; in test [5] (setting [11]), 0.703 µM.
Consider TIKYSNDNRY, for which the dissociation constant Kd in test [1] (setting [9]) is no less than 20.6 µM; in test [2] (setting [9]) it was 8.86 µM; in test [3] (setting [9]), no less than 29.9 µM; in test [4] (setting [9]), no less than 70 µM; in test [5] (setting [9]), 0.956 µM.
With QLRSLTEILK, the Kd in test [1] (source organism: Homo sapiens) was 0.055 µM.
With AQQFANVISK, the equilibrium dissociation constant (Kd) in test [1] (setting [9]) was 0.0838 µM; in test [2] (setting [9]) it was 0.00268 µM; in test [3] (setting [9]) it was 1.94 µM; in test [4] (setting [9]), no less than 70 µM; in test [5] (setting [9]), 17.6 µM.
In the same order, the values of KVLAARLKR are 0.633 µM, 0.158 µM, 0.663 µM, 18.8 µM and 0.00607 µM.
The corresponding values for ELYVSSSYK are 0.00073 µM, 0.0124 µM, no less than 77.9 µM, no less than 54.2 µM and 0.00671 µM.
In the case of HYIHCFRKPH, the Kd was no less than 70 µM in test [1] (setting [12]); no less than 69.7 µM in test [2] (setting [12]); 0.0898 µM in test [3] (setting [12]); 0.589 µM in test [4] (setting [12]); no less than 70.1 µM in test [5] (setting [12]).
As to ESNIEIMDK, the Kd in test [1] (setting [9]) is 15.5 µM; in test [2] (setting [9]), 10.8 µM; in test [3] (setting [9]), no less than 77.9 µM; in test [4] (setting [9]), no less than 77.7 µM; in test [5] (setting [9]), 0.0112 µM.
In the same order, the values of VMNIERQDYR are 11.4 µM, 4.14 µM, 0.0467 µM, 0.0651 µM and 0.153 µM.
For FIRIIRPDY, the Kd in test [1] (setting [9]) was no less than 78 µM; in test [2] (setting [9]) it was no less than 56.2 µM; in test [3] (setting [9]), 7.05 µM; in test [4] (setting [9]), no less than 24.7 µM; in test [5] (setting [9]), 3.09 µM.
In the same order, the values of ELAELLEMKY are 14.2 µM, no less than 29.5 µM, no less than 50.8 µM, no less than 70 µM and 2.84 µM.

The values above are taken from the Immune Epitope Database (IEDB).
